Consider 1 protein from paper PMC3607736, “HAD hydrolase function unveiled by substrate screening: enzymatic characterization of Arabidopsis thaliana subclass I phosphosugar phosphatase AtSgpp” (Planta, 2012).

Usually Vmax stands for the top rate of the reaction or transport when substrate is in excess. A word on the kcat: it is the maximal rate divided by the concentration of active sites. For orientation: kcat/Km means the second-order rate constant that governs catalysis at low substrate concentration.

Substrate in the data set: O=P(O)(O)OCC(O)CO
Kind of data set: inorganic phosphate release (Ames), non-linear regression. As to conditions: 20 mM Tris-HCl pH 7.0, 5 mM MgCl2, 32 °C, apparent Km, MBP fusion. Format: biochemical, Arabidopsis thaliana. From the text:
inorganic phosphate release (Ames), non-linear regression on AtSgpp (MBP-AtSgpp, At2g38740)

B1: AtSgpp (MBP-AtSgpp, At2g38740) (Arabidopsis thaliana) (protein)
chain: MNGFSDLNPSESKPSLSQLAPLEAILFDVDGTLCDSDPIHLIAFQELLQEIGFNNGVPIDEKFFVENIAGKHNSEIALLLFPDDVSRGLKFCDEKEALYRKIVAEKIKPLDGLIKLTKWIEDRGLKRAAVTNAPKENAELMISKLGLTDFFQAVILGSECEFPKPHPGPYLKALEVLNVSKEHTLVFEDSISGIKAGVAAGMPVIGLTTGNPASLLMQAKPAFLIENYADPKLWAVLEELDNKS
notes: N-terminal MBP fusion (pMAL-c2X, Ile-Ser-Glu-Phe linker before Met1); E. coli TB1, amylose resin
As to B1, the Km result was “(7.3 ± 0.2) × 10^−3 M”, the Vmax is 0.498 µmol/min, the kcat is 23 ± 3 s⁻¹ and the specificity constant (kcat/Km) was found to be 3100 M⁻¹ s⁻¹.
